Experiment [1] has as its target T1, Soluble Flag-tagged LTα1β2 (UniProt P01374 35-205, limits assumed).
T1 construct: Biacore ligand captured on the anti-Flag antibody M2; the whole LTβ entry is named here; also called Ligand
T1 sequence 1: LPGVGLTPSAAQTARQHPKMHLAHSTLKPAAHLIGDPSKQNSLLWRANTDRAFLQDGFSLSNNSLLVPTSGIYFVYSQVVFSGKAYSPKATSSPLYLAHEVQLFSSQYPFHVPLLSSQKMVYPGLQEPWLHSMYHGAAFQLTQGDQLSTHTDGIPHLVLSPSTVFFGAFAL
T1 sequence 2: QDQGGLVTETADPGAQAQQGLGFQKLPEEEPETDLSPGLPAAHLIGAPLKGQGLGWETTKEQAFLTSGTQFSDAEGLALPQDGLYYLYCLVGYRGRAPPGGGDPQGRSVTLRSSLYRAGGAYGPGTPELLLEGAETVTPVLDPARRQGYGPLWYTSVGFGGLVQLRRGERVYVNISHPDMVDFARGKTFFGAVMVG
As to the kind of experiment: SPR (Biacore 3000), Flag-LTα1β2 captured on anti-Flag M2; LTβR binding site 1.

For experiment [2], the target named is T1, Soluble Flag-tagged LTα1β2. As to the kind of experiment: SPR (Biacore 3000), Flag-LTα1β2 captured on anti-Flag M2; LTβR binding site 2. On the technique in general: SPR reads the build-up and loss of mass on a sensor chip optically.

B1: monomeric LTβR (receptor, UniProt P36941 31-227, looked up)
chain: QAVPPYASENQTCRDQEKEYYEPQHRICCSRCPPGTYVSAKCSRIRDTVCATCAENSYNEHWNYLTICQLCRPCDPVMGLEEIAPCTSKRKTQCRCQPGMFCAAWALECTHCELLSDCPPGTEAELKDEVGKGNNHCVPCKAGHFQNTSSPSARCQPHTRCENQGLVEAAPGTAQSDTTCKNPLEPLPPEMSGTMLM
notes: Injected at 20 µM in the Biacore assay; also called LTbR
As for B1, the Kd in experiment [1] is roughly 50 nM; in experiment [2], roughly 1500 nM.

What is called Kd is a measure of binding affinity in units of concentration. A lower Kd goes with tighter binding.

(Values after patent US20140079716A1 (Biogen, published 2014).)
